Results as given in patent US9969998B2, “Compositions of adenosine deaminase-2 (ADA2), variants thereof and methods of using same” (Halozyme, Inc., priority 2014, dated 2018).
Where “and” joins values, the source holds several entries; their conditions need not be identical. Equal entries are not always repeated.

Legend:
NK/T cells = assay: Adenosine-mediated inhibition of NK/T cell proliferation (Cell Titer Glow); assay type: cell-based, human; settings: 5 days
Protocol: A mixture of NK and T cells (NK/T) were prepared from healthy donor's peripheral blood mononuclear cells (PBMC). Briefly, 10×10^7 HumanPBMCs were cultured for 6-7 days in Stem cell growth medium (SCGM; Order No. 20802-0500, CellGenix, Freiburg, Germany) with 5% human serum from donors with blood type AB (human AB serum; Cat. No. 35-060-C1, Mediatech, Mannassas, Va.) in the presence of 20 ng/mL anti-CD3 eBioscience, San Diego, Calif.; Cat. No. 16-0039) and 500 IU/mL recombinant human interleukin 2 (rhIL-2; Cat. No. 200-02, PeproTech, Rocky Hill, N.J.). The cells were then cultured for an additional 2-3 weeks in SCGM in the presence of 500 IU/mL rhIL-2. NK/T cells cultured for 2-4 weeks were used in experiments.
To test the adenosine-mediated inhibition of NK/T cells proliferation, NK/T cells (10,000 cells/well) were plated in a 96 well white plate with clear bottoms in 200 μL volume. The cells were treated with 20 μL adenosine (SKU No. A925, Sigma Aldrich) at concentrations resulting from a 3-fold dilution series starting at 1 mM, i.e. 1 mM, 300 μM, 100 μM, 30 μM, 10 μM, 3 μM, 1 μM, 0.3 μM and 0.1 μM. The NK/T cells were allowed to grow for 5 days in a humidified tissue culture incubator at 37° C. with 5% CO2. After 5 days of treatment, the cells were centrifuged in a 96 well plate at […] for 5 min. 100 μL of medium was removed from each well of cells, followed by addition of 100 μL of Cell Titer Glow (CTG) reagent (Cat. No. G7570, Promega, Madison, Wis.) and incubated at room temperature for 15 min before measuring luminescence on the SpectraMax M3 plate reader according to the manufacturer's instructions. The mean cell survival (%) was determined by comparison of the measured luminescence to control cells not treated with adenosine

[1] = Distribution of labeled PEG-ADA2-K374D in CT26 peritibial tumors (IVIS fluorescent imaging); assay type: in vivo, Balb/C mice; settings: for Fluorescent intensity at tumor: 0.5 mg/kg IV
Protocol: To assess the distribution and elimination of administered PEG-ADA2-K374D in the tumor microenvironment or in normal organs, immunofluorescence was used to assess the presence of PEG-ADA2-K374D administered to mice. PEG-ADA2-K374D was labeled at room temperature for 60 minutes with DyLight755 Sulfydryl-Reactive Dye (DL755), a near-IR fluor, using the DyLight 755 Antibody Labeling Kit (Thermo Scientific, Rockford, Ill.). Alexa Fluor 750 (AF 750) labeled bovine serum albumin (BSA, 1 mg/mL) was purchased from (Life Technology, Carlsbad, Calif.).
CT26 syngeneic tumors were produced by injecting 2×10^5 cells in 0.05 mL injection volume per animal into the right peritibial muscle of male Balb/C mice. When average tumor size reached 600 mm^3, tumor-bearing mice were staged into 2 groups (n=4/group) to receive either PEG-ADA2-K374D^DL755 at 0.5 mg/kg or BSA^AF750 at 0.5 mg/kg intravenously. The distribution of DL755 labeled PEG-ADA2-K374D (PEG-ADA2-K374D^DL755) and AF 750 labeled BSA (BSA^AF750) in mouse tumors was assessed using the IVIS Caliper fluorescent imaging system with an excitation wavelength of 745 nm and an emission wavelength of 800 nm (Caliper Life Sciences, Alameda, Calif.) and signal intensity was measured with LivingImage software. Images were captured before administration of labeled proteins and at 10 minute, 2, 6 hours and daily after administration of labeled proteins.

[2] = system: adenosine in tumor extracellular matrix; assay: Adenosine in MH194+PSC4 tumor extracellular matrix (microdialysis, LC/MS); assay type: in vivo, mice; settings: for Adenosine concentration in ECM, Mean: n = 8; for Adenosine concentration in ECM, individual tumors: single animal values; for adenosine concentration in tumor ECM: 0.03 mg/kg
Protocol: To assess the effects of PEGADA2 on adenosine in tumor extracellular matrix, mice bearing peritibial MH194+PSC4 tumors received vehicle, the polypeptide whose sequence is set forth in SEQ ID NO:20, which contains the amino acid replacement K374D (Zavialov numbering; K371D mature numbering), at 0.03 mg/kg, or the polypeptide whose sequence is set forth in SEQ ID NO: 273, which contains the amino acid replacements R222Q/S265N (Zavialov numbering; R219Q/S262 mature numbering), at 0.03 mg/kg, 24 or 48 hours prior to microdialysis. Each of the polypeptides were PEGylated as described above in Examples 8 and 22). The mice were anesthetized using isofluorane, and a heating pad was used to maintain body temperature. A small incision was made on the tumor. A microdialysis probe with 55,000 Da molecular weight cut-off (CMA, Stockholm, Sweden) was inserted into the tumor, via a guided cannula. The length of the microdialysis probe used in this study was 10 mm. Once the probe was in position, the cannula was withdrawn leaving the probe completely embedded in the tumor tissue. Dulbecco's phosphate buffered saline (DPBS; Thermo Fisher Scientific) with ADA inhibitors (Pentostatin and 5-iodotubercindin) was perfused through the probe at a flow rate of 1 μl/min for 30 minutes. Then the samples were collected at a flow rate of 0.5 μl/min for 60 minutes. Microdialysis perfusates were analyzed by Liquid chromatography-mass spectrometry (LC/MS) at MicroConstants (9050 Camino Santa Fe, San Diego, Calif. 92121).

[3] = Kinetic assessment of adenosine deaminase activity (ammonia assay, Michaelis-Menten); assay type: biochemical; settings: for Km / Vmax / kcat: [E] = 8.5 nM; for kcat: kcat=Vmax/0.0085/60
Summary of the method: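 Coupled ammonia assay: rHuADA2 WT or variants (1 μg/mL, 17 nM in 2× mix) with adenosine 20 μM–20 mM, α-ketoglutarate, NADPH and GDH, at pH 7.6 or pH 6.5 (PIPES), room temperature. Michaelis-Menten fit gave Km, Vmax, kcat, kcat/Km.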

Nc1ncnc2c1ncn2[C@@H]1O[C@H](CO)[C@@H](O)[C@H]1O [Adenosine, adenosine]
IC50 (NK/T cells; Homo sapiens, NKT, 120 h): 16.2 µM
Mean Cell survival (%) (NK/T cells; adenosine 0.1 μM): 106.67%
Mean Cell survival (%) (NK/T cells; adenosine 0.3 μM): 101.19%
Mean Cell survival (%) (NK/T cells; adenosine 1 μM): 121.11%
Mean Cell survival (%) (NK/T cells; adenosine 3 μM): 110.07%
Mean Cell survival (%) (NK/T cells; adenosine 10 μM): 70.33%
Mean Cell survival (%) (NK/T cells; adenosine 30 μM): 36.84%
Mean Cell survival (%) (NK/T cells; adenosine 100 μM): 26.01%
Mean Cell survival (%) (NK/T cells; adenosine 300 μM): 13.65%
Mean Cell survival (%) (NK/T cells; adenosine 1000 μM): 15.82%

BSA^AF750: Alexa Fluor 750 (AF 750) labeled bovine serum albumin, control agent
Fluorescent intensity at tumor ([1]; Hour 0.2): 2.95E+09
Fluorescent intensity at tumor ([1]; Hour 2): 3.92E+09
Fluorescent intensity at tumor ([1]; Hour 6): 4.64E+09
Fluorescent intensity at tumor ([1]; Hour 24): 3.18E+09
Fluorescent intensity at tumor ([1]; Hour 48): 1.94E+09
Fluorescent intensity at tumor ([1]; Hour 72): 1.30E+09
Fluorescent intensity at tumor ([1]; Hour 96): 9.86E+08
Fluorescent intensity at tumor ([1]; Hour 144): 7.78E+08
Fluorescent intensity at tumor ([1]; Hour 168): 6.39E+08
Fluorescent intensity at tumor ([1]; Hour 196): 6.59E+08
Fluorescent intensity at tumor ([1]; Hour −1 (before administration)): 7.86E+08
eliminated from tumors ([1]; day 6 post injection, 0.5 mg/kg intravenously): ~100%

B1: R222Q/S265N: ADA2 combination variant SEQ ID NO:273 (protein)
chain: IDETRAHLLLKEKMMRLGGRLVLNTKEELANERLMTLKIAEMKEAMRTLIFPPSMHFFQAKHLIERSQVFNILRMMPKGAALHLHDIGIVTMDWLVRNVTYRPHCHICFTPRGIMQFRFAHPTPRPSEKCSKWILLEDYRKRVQNVTEFDDSLLRNFTLVTQHPEVIYTNQNVVWSKFETIFFTISGLIHYAPVFRDYVFRSMQEFYEDNVLYMEIRAQLLPVYELSGEHHDEEWSVKTYQEVAQKFVETHPEFIGIKIIYNDHRSKDVAVIAESIRMAMGLRIKFPTVVAGFDLVGHEDTGHSLHDYKEALMIPAKDGVKLPYFFHAGETDWQGTSIDRNILDALMLNTTRIGHGFALSKHPAVRTYSWKKDIPIEVCPISNQVLKLVSDLRNHPVATLMATGHPMVISSDDPAMFGAKGLSYDFYEVFMGIGGMKADLRTLKQLAMNSIKYSTLLESEKNTFMEIWKKRWDKFIADVATK
modifications: human ADA2 R219Q/S262N, mature numbering
Adenosine concentration in ECM, Mean ([2]; 24 hours after 0.03 mg/kg): 6.88 µM
Adenosine concentration in ECM, individual tumors ([2]; 24 hours after 0.03 mg/kg): 0.08 µM and 20.54 µM and 1.08 µM and 0.62 µM and 4.94 µM and 21.48 µM and 0.48 µM and 5.80 µM
adenosine concentration in tumor ECM ([2]; 24 hours post treatment): 6.9 µM
Adenosine concentration in ECM, Mean ([2]; 48 hours after 0.03 mg/kg): 9.77 µM
Adenosine concentration in ECM, individual tumors ([2]; 48 hours after 0.03 mg/kg): 13.06 µM and 1.96 µM and 20.36 µM and 20.62 µM and 0.35 µM and 4.15 µM and 14.26 µM and 3.43 µM
adenosine concentration in tumor ECM ([2]; 48 hours post treatment): 9.8 µM
fold higher catalytic efficiency (kcat/Km) compared to the WT ADA2 ([3]; pH 6.5): 8.2 fold
fold lower Km compared to the WT ADA2 ([3]; pH 6.5): 5.0 fold
Km ([3]; pH 6.5): 800 µM
Vmax ([3]; pH 6.5): 56.75 µM/min
kcat ([3]; pH 6.5): 111.27 s⁻¹
fold higher catalytic efficiency (kcat/Km) compared to the WT ADA2 ([3]; pH 7.6): 15 fold
fold lower Km compared to the WT ADA2 ([3]; pH 7.6): 4.7 fold
Km ([3]; pH 7.6): 1100 µM
Vmax ([3]; pH 7.6): 87.79 µM/min
kcat ([3]; pH 7.6): 172.14 s⁻¹
